For one assay, the system named is fibroblast chemotaxis. Kind of assay: Fibroblast chemotaxis to GFs in the presence or absence of FN domains. Conditions: in solution. The assay is classed as cell-based. Here is the method: To determine whether FN functional domains modulated TGF-β1, bFGF or PDGF-BB activity in solution, fibroblast chemotaxis was performed in response to the GFs in the presence or absence of FN domains.

In assay [1] the test system is mouse fibroblasts null for FN (FN−/−). Briefly: Survival of FN-null fibroblasts on FN domains with PDGF-BB. It counts as cell-based. The note with it: for FN-null cell survival / proliferation with PDGF-BB: FNIII8-11 + the named domain, or named protein. From the text:
To further investigate the response of cells to PDGF-BB bound to FN domains, we investigated the survival response of mouse fibroblasts null for FN (FN−/−). First we determined the response of FN-null cells to PDGF-BB in the absence of serum or other sources of exogenous FN. […] […] […] Importantly, differential response of FN-null cells, plated on different FN domains, to PDGF-BB was not secondary to differences in attachment as judged by cell counts two hours after plating. The FNIII8-11 central cell binding domain was present in all circumstances.

Assay [2] has as its target T1, PDGF-BB (Homo sapiens, UniProt P01127). Kind of assay: Surface plasmon resonance kinetic binding of PDGF-BB to FN domains. The note with it: for Kd: kinetic binding. From the text:
VEGF, TGF-β1, PDGF-BB and FGF-2 bound IIICS with similar affinities (KD˜10^−7 M). […] The tested biological activities of GFs bound to a FN functional domain were retained or enhanced. […] In addition, our studies provide important information regarding the delivery of GFs and the sequestering of GFs, as appropriate, for therapeutic (e.g., surgical) or aesthetic indications, including wound healing treatments (where an aim is GF delivery) and cancer treatments (where an aim is GF sequestration). Where FN fragments are used to deliver GFs, they may be described as maintaining, activating, stabilizing or enhancing GF activity. […]

Assay [3] concerns the target T1, PDGF-BB. Briefly: Equilibrium binding of PDGF-BB to FN, FN domains and peptides. From the text:
(§1) This led us to speculate that PDGF was binding to the engineered ECM through the H or HV domain since vascular endothelial GF (VEGF), a member of the PDGF superfamily, had been reported to bind H and remain active while bound.
(§2) The survival of FN-null fibroblasts in the presence to PDGF-BB required substrate coated with intact FN or FNIII8-11+a PDGF-binding FN domain. […] To address this directly, we performed equilibrium binding assays with PDGF-BB to FN adsorbed to a surface or coupled to agarose beads. In addition, we also investigated the ability of other growth factors to bind intact FN.

The next assay concerns GFs. Kind of assay: Growth factor binding to FN domains (GFs in general).
Text: as §1

The target in assay [4] is T2, TGF-β1 (Homo sapiens, UniProt P01137). Briefly: Plasmon surface resonance kinetic binding of TGF-β1 to FN domains. Conditions: for Kd: plasmon (surface) resonance, kinetic binding. From the text: (§3) VEGF, TGF-β1, PDGF-BB and FGF-2 bound IIICS with similar affinities (KD˜10^−7 M). […] The tested biological activities of GFs bound to a FN functional domain were retained or enhanced. […] In addition, our studies provide important information regarding the delivery of GFs and the sequestering of GFs, as appropriate, for therapeutic (e.g., surgical) or aesthetic indications, including wound healing treatments (where an aim is GF delivery) and cancer treatments (where an aim is GF sequestration). Where FN fragments are used to deliver GFs, they may be described as maintaining, activating, stabilizing or enhancing GF activity.
(§4) To determine whether FN domains bind TGF-β1 and bFGF, equilibrium and kinetic binding was performed.

Assay [5] addresses T2, TGF-β1. Kind of assay: Equilibrium binding of TGF-β1 to FN, FN domains and peptides. The protocol: These peptides represent domains that follow the sequence pattern [QN]-X(1,2)-[ST]-X(0,1)-[IG]-[QS]-[KRQ]-[YTM]-[IG]-X(4,5)-X(0,1)-[KR]-X(1,2)-X(1,2)-[RT]-X(1,2)-[KQTS]-X(2)-T and that bind TGF-β1 with a certain affinity. […] We know of no other peptides in the human genome database that follow this pattern.
as §4

The next assay has as its target bFGF (Homo sapiens, UniProt P09038). Briefly: Equilibrium binding of bFGF (FGF-2) to FN, FN domains and peptides. Conditions: method not specified (equilibrium and kinetic binding performed); read-out: KD, bFGF binding. Here is the method:
as §2, §4

For another assay, the system named is VEGF. Kind of assay: Plasmon resonance binding of VEGF to FN domains.
Text: as §3

Another assay addresses FGF-2 (Homo sapiens, UniProt P09038). Briefly: Plasmon resonance binding of FGF-2 to FN domains.
Text: as §3

The target in another assay is EGF (Homo sapiens, UniProt P01133). Briefly: Binding of EGF to FN, FN domains and peptides.
Text: as §3, §2, §4

Where [6] appears, read: method not specified (equilibrium and kinetic binding performed).

As a reminder, the Kd is the concentration at which binding is half-saturated.

bFGF, sequence (P09038 143-288): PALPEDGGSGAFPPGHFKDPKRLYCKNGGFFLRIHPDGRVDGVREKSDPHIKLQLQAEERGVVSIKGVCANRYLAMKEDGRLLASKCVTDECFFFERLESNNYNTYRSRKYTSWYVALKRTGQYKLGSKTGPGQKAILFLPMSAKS
FGF-2, sequence (P09038 143-288): as above
T1 sequence (P01127 82-190 limits assumed): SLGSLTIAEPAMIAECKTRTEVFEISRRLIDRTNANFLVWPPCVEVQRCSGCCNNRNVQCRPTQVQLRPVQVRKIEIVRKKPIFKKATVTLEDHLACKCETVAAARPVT
T2 sequence (P01137 279-390 limits assumed, species assumed): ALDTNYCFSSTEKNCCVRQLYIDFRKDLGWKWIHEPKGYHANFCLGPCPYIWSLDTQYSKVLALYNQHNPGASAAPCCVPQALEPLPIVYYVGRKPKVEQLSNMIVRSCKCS
EGF, sequence (P01133 971-1023 limits assumed, species assumed): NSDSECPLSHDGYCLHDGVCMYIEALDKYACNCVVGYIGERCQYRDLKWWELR

B1: FNIII3-6: recombinant FN type III repeats 3-6 (protein)
chain: MGSAPDAPPDTTVDQVDDTSIVVRWSRPQAPITGYRIVYSPSVEGSSTELNLPETANSVTLSDLQPGVQYNITIYAVEENQESTPVVIQQETTGTPRSDTVPSPRDLQFVEVTDVKVTIMWTPPESAVTGYRVDVIPVNLPGEHGQRLPISRNTFAEVTGLSPGVTYYFKVFAVSHGRESKPLTAQQTTKLDAPTNLQFVNETDSTVLVRWTPPRAQITGYRLTVGLTRRGQPRQYNVGPSVSKYPLRNLQPASEYTVSLVAIKGNQESPKATGVFTTLQPGSSIPPYNTEVTETTIVITWTPAPRIGFKLGVRPSQGGEAPREVTSDSGSIVVSGLTPGVEYVYTIQVLRDGQERDAPIVNKVVTTSHHHHHHC
For B1, the “enhancement of chemotactic activity of TGF-β1, bFGF and PDGF-BB” value in the assay on fibroblast chemotaxis is “did not enhance”. Moreover, the “support of FN-null fibroblast survival in the presence of PDGF-BB” value in assay [1] (substrate coating, FNIII8-11 alone or + named domain) was “did not support cell survival”. Besides, the “PDGF-BB binding (in words)” value with PDGF-BB [2] is listed as “no binding”; with PDGF-BB [3], “did not”. In the assay on GFs, the “binding of any GF (in words)” value is given as “In no case did any GF bind”.

B2: FNIII12-14: recombinant FN type III repeats 12-14, heparinII-binding domain (protein)
chain: MGSAIPAPTDLKFTQVTPTSLSAQWTPPNVQLTGYRVRVTPKEKTGPMKEINLAPDSSSVVVSGLMVATKYEVSVYALKDTLTSRPAQGVVTTLENVSPPRRARVTDATETTITISWRTKTETITGFQVDAVPANGQTPIQRTIKPDVRSYTITGLQPGTDYKIYLYTLNDNARSSPVVIDASTAIDAPSNLRFLATTPNSLLVSWQPPRARITGYIIKYEKPGSPPREVVPRPRPGVTEATITGLEPGTEYTIYVIALKNNQKSEPLIGRKKTTSHHHHHHC
Regarding B2, the Kd came out at 7.6 nM with TGF-β1 [4]; 7.6 nM with TGF-β1 [5] (setting [6]); 1.9 nM with bFGF; 55 nM with PDGF-BB [2]; 35 nM in the assay with PDGF-BB [3]. Besides, the “FN-null cell survival / proliferation with PDGF-BB” value in [1] is “enhance survival”. In addition, the “FN-null cell survival with PDGF” value in assay [1] (plastic precoated with 0.15 μM GST-tagged FNIII8-11 ± the named domain, or named protein, PDGF-BB added 1 day after plating, 3 days) is listed as “increased survival”.

B3: FNIII1-7: FN type III repeats 1-7 (protein)
chain: GPVEVFITETPSQPNSHPIQWNAPQPSHISKYILRWRPKNSVGRWKEATIPGHLNSYTIKGLKPGVVYEGQLISIQQYGHQEVTRFDFTTTSTSTPVTSNTVTGETTPFSPLVATSESVTEITASSFVVSWVSASDTVSGFRVEYELSEEGDEPQYLDLPSTATSVNIPDLLPGRKYIVNVYQISEDGEQSLILSTSQTTAPDAPPDTTVDQVDDTSIVVRWSRPQAPITGYRIVYSPSVEGSSTELNLPETANSVTLSDLQPGVQYNITIYAVEENQESTPVVIQQETTGTPRSDTVPSPRDLQFVEVTDVKVTIMWTPPESAVTGYRVDVIPVNLPGEHGQRLPISRNTFAEVTGLSPGVTYYFKVFAVSHGRESKPLTAQQTTKLDAPTNLQFVNETDSTVLVRWTPPRAQITGYRLTVGLTRRGQPRQYNVGPSVSKYPLRNLQPASEYTVSLVAIKGNQESPKATGVFTTLQPGSSIPPYNTEVTETTIVITWTPAPRIGFKLGVRPSQGGEAPREVTSDSGSIVVSGLTPGVEYVYTIQVLRDGQERDAPIVNKVVTPLSPPTNLHLEANPDTGVLTVSWERSTTPDITGYRITTTPTNGQQGNSLEEVVHADQSSCTFDNLSPGLEYNVSVYTVKDDKESVPISDTIIP
With B3, the Kd with TGF-β1 [4] was determined as 18 nM; with TGF-β1 [5] (equilibrium binding) it was 17 nM; with bFGF it was 4.1 nM; with PDGF-BB [2], 100 nM; with PDGF-BB [3] it was 75 nM. Besides, in the assay with TGF-β1 [4] (plasmon resonance), the “TGF-β1 binding (in words)” value was “all four GFs bound”. Further, the “VEGF binding (in words)” value in the assay on VEGF was “all four GFs bound”. Also, the “FGF-2 binding (in words)” value with FGF-2 is “all four GFs bound”. Besides, the “PDGF-BB binding (in words)” value in the assay with PDGF-BB [2] is “all four GFs bound”.

B4: FNIII12-13: FN type III repeats 12-13 (protein)
chain: AIPAPTDLKFTQVTPTSLSAQWTPPNVQLTGYRVRVTPKEKTGPMKEINLAPDSSSVVVSGLMVATKYEVSVYALKDTLTSRPAQGVVTTLENVSPPRRARVTDATETTITISWRTKTETITGFQVDAVPANGQTPIQRTIKPDVRSYTITGLQPGTDYKIYLYTLNDNARSSPVVIDAST
Turning to B4, the Kd with PDGF-BB [3] stood at 75 nM.

B5: FNIII12-V15: composite heparinII-binding and variably-spliced IIICS domains (protein)
chain: MGSAIPAPTDLKFTQVTPTSLSAQWTPPNVQLTGYRVRVTPKEKTGPMKEINLAPDSSSVVVSGLMVATKYEVSVYALKDTLTSRPAQGVVTTLENVSPPRRARVTDATETTITISWRTKTETITGFQVDAVPANGQTPIQRTIKPDVRSYTITGLQPGTDYKIYLYTLNDNARSSPVVIDASTAIDAPSNLRFLATTPNSLLVSWQPPRARITGYIIKYEKPGSPPREVVPRPRPGVTEATITGLEPGTEYTIYVIALKNNQKSEPLIGRKKTDELPQLVTLPHPNLHGPEILDVPSTVQKTPFVTHPGYDTGNGIQLPGTSGQQPSVGQQMIFEEHGFRRTTPPTTATPIRHRPRPYPPNVGEEIQIGHIPREDVDYHLYPHGPGLNPNASTGQEALSQTTISWAPFQDTSEYIISCHPVGTDEEPLQFRVPGTSTSATLTGLTRGATYNVIVEALKDQQRHKVREEVVTVGNSVNEGTSHHHHHHC
Turning to B5, the “chemotactic activity when assayed alone” value in the assay on fibroblast chemotaxis is on record as “no chemotactic activity”. Besides, in the assay with fibroblast chemotaxis, the “enhancement of chemotactic activity of TGF-β1, bFGF and PDGF-BB” value is recorded as “enhanced the chemotactic activity”. In addition, the Kd at VEGF was 0.6 nM; with TGF-β1 [5] (equilibrium binding), 97 nM; in the assay with bFGF, 37 nM; in the assay with FGF-2 it was 37 nM; with PDGF-BB [2] it was 17 nM; with PDGF-BB [3], 21 nM. Moreover, the “FN-null cell survival / proliferation with PDGF-BB” value in assay [1] is reported as “enhance survival”. In addition, the “EGF binding (in words)” value with EGF is listed as “all GFs, except EGF, bound”. For the same molecule, the “GF binding on addition of salt or acid” value in the assay on GFs (up to 2.5 M NaCl added or pH lowered to about 2.0) is “failed to demonstrate any diminution”.

B6: FNIII12-15: heparin II binding domain of FN (protein)
chain: MGSTIPAPTDLKFTQVTPTSLSAQWTPPNVQLTGYRVRVTPKEKTGPMKEINLAPDSSSVVVSGLMVATKYEVSVYALKDTLTSRPAQGVVTTLENVSPPRRARVTDATETTITISWRTKTETITGFQVDAVPANGQTPIQRTIKPDVRSYTITGLQPGTDYKIYLYTLNDNARSSPVVIDASTAIDAPSNLRFLATTPNSLLVSWQPPRARITGYIIKYEKPGSPPREVVPRPRPGVTEATITGLEPGTEYTIYVIALKNNQKSEPLIGRKKTGQEALSQTTISWAPFQDTSEYIISCHPVGTDEEPLQFRVPGTSTSATLTGLTRGATYNVIVEALKDQQRHKVREEVVTVGNSVNEGTSHHHHHHC
Take B6: the Kd was 16 nM with TGF-β1 [4]; 16 nM with TGF-β1 [5] (setting [6]); 130 nM in the assay with bFGF; 170 nM with FGF-2; 68 nM with PDGF-BB [2]; 6.8 nM with PDGF-BB [3].

For the origin of these results see patent publication US8691944B2, “Fibronectin polypeptides and methods of use” (The Research Foundation for the State University of New York, priority 2005, dated 2014).
